Series [1] concerns Lrp;MBP-RctB (Escherichia coli;Vibrio cholerae). Description: EMSA. Particulars: scale: fold higher RctB affinity than to naked crtS. In general terms: A gel shift assay detects complexes by their altered migration in electrophoresis.
In another series the test system is Lrp (Escherichia coli). Put plainly: EMSA.

One may read the Kd as a measure of binding affinity in units of concentration.

Substance “crtS (153 bp with ~100 bp lambda flanks)” displayed a binding signal in series [1] of 10. Further, the Kd in the series on Lrp (Escherichia coli) came to 5.5 nM.

For the origin of these results see PMC6139311.
